Laboratory results as given in patent publication US20260115255A1 (CYTUNE PHARMA, published 2026).

Experiments:
[1] = biological target: T1, FcγRIIIa F158 (human, UniProt P08637 17-208); assay: SPR; ratio of affinity (1/Kd) for FcγRIIIa F158 to affinity for FcγRIIb
T1 construct: Captured on the chip through an anti-His tag antibody; construct not described; also called hFcγRIIIaF158; CD16a F158
Method: (§1) SPR experiments were performed on a Biacore 8K (Cytiva, Chicago, IL, USA), using CM5 sensor chips (Cytiva) with an immobilization using THE His tag antibodies (Genscript). FcγRIIIa V158, FcγRIIIa F158 or FcγRIIb protein were used for capture with a contact time of 30 sec at a flow rate of […] in a 1×HBS-EP+ running buffer. Association/dissociation rates were measured for each tested immunocytokine at a flow rate of 30 μl/min with concentration serial dilution in a suitable range with an association time/dissociation time of 300 s/300 s except for constructs with DLE and DE with and without afucosylation, where association/dissociation time of 120 s/1200 s was applied.

[2] = biological target: T2, FcγRIIIa V158 (human, UniProt P08637 17-208); assay: SPR; ratio of affinity (1/Kd) for FcγRIIIa V158 to affinity for FcγRIIb
T2 construct: Captured on the chip through an anti-His tag antibody, so it carries a His tag; construct not described; also called hFcγRIIIaV158; FcγIIIa V158
Method: as §1

| A/I (F158) [1] | A/I (V158) [2] | Binder |
| --- | --- | --- |
| 228 | 464 | hCl1a DLE-RLI DANA (other, also called SOT202-DLE-DANA; copies: 1 + 1 + 2) heavy 1: QVQLVQSGAEVKKPGASVKVSCKASGYTFTDYAMHWVRQAPGQRLEWMGWINTYTGKPTYAQKFQGRVTITRDTSASTAYMELSSLRSEDTAVYYCARAVFYGYTMDAWGQGTLVTVSSASTKGPSVFPLAPSSKSTSGGTAALGCLVKDYFPEPVTVSWNSGALTSGVHTFPAVLQSSGLYSLSSVVTVPSSSLGTQTYICNVNHKPSNTKVDKKVEPKSCDKTHTCPPCPAPELLGGPDVFLFPPKPKDTLMISRTPEVTCVVVDVSHEDPEVKFNWYVDGVEVHNAKTKPREEQYNSTYRVVSVLTVLHQDWLNGKEYKCKVSNKALPLPEEKTISKAKGQPREPQVYTLPPSRDELTKNQVSLWCLVKGFYPSDIAVEWESNGQPENNYKTTPPVLDSDGSFFLYSKLTVDKSRWQQGNVFSCSVMHEALHNHYTQKSLSLSPGITCPPPMSVEHADIWVKSYSLYSRERYICNSGFKRKAGTSSLTECVLNKATNVAHWTTPSLKCIRDPALVHQRPAPPSGGSGGGGSGGGSGGGGSGGNWVNVISDLKKIEDLIQSMHIDATLYTESDVHPSCKVTAMKCFLLELQVISLESGDASIHATVEALIILANNSLSSNAQVTESGCKECEELEEKNIKEFLQSFVHIVQMFINTS heavy 2: QVQLVQSGAEVKKPGASVKVSCKASGYTFTDYAMHWVRQAPGQRLEWMGWINTYTGKPTYAQKFQGRVTITRDTSASTAYMELSSLRSEDTAVYYCARAVFYGYTMDAWGQGTLVTVSSASTKGPSVFPLAPSSKSTSGGTAALGCLVKDYFPEPVTVSWNSGALTSGVHTFPAVLQSSGLYSLSSVVTVPSSSLGTQTYICNVNHKPSNTKVDKKVEPKSCDKTHTCPPCPAPELLGGPDVFLFPPKPKDTLMISRTPEVTCVVVDVSHEDPEVKFNWYVDGVEVHNAKTKPREEQYNSTYRVVSVLTVLHQDWLNGKEYKCKVSNKALPLPEEKTISKAKGQPREPQVYTLPPSRDELTKNQVSLSCAVKGFYPSDIAVEWESNGQPENNYKTTPPVLDSDGSFFLVSKLTVDKSRWQQGNVFSCSVMHEALHNHYTQKSLSLSPG light: DIQMTQSPSSLSASVGDRVTITCRASEDIYSNLAWYQQKPGKAPKLLIFSVKRLQDGVPSRFSGSGSGTDFTLTISSLQPEDFATYYCLQGSNFPLTFGQGTKVEIKRTVAAPSVFIFPPSDEQLKSGTASVVCLLNNFYPREAKVQWKVDNALQSGNSQESVTEQDSKDSTYSLSSTLTLSKADYEKHKVYACEVTHQGLSSPVTKSFNRGEC |
| 9370 | 13700 | hCl1a DLE-RLI DANA afuc (other, Afucosylated Fc N-glycan (N297, both heavy chains); the letters cannot carry it., Same chains as m4, afucosylated; copies: 1 + 1 + 2) heavy 1: QVQLVQSGAEVKKPGASVKVSCKASGYTFTDYAMHWVRQAPGQRLEWMGWINTYTGKPTYAQKFQGRVTITRDTSASTAYMELSSLRSEDTAVYYCARAVFYGYTMDAWGQGTLVTVSSASTKGPSVFPLAPSSKSTSGGTAALGCLVKDYFPEPVTVSWNSGALTSGVHTFPAVLQSSGLYSLSSVVTVPSSSLGTQTYICNVNHKPSNTKVDKKVEPKSCDKTHTCPPCPAPELLGGPDVFLFPPKPKDTLMISRTPEVTCVVVDVSHEDPEVKFNWYVDGVEVHNAKTKPREEQYNSTYRVVSVLTVLHQDWLNGKEYKCKVSNKALPLPEEKTISKAKGQPREPQVYTLPPSRDELTKNQVSLWCLVKGFYPSDIAVEWESNGQPENNYKTTPPVLDSDGSFFLYSKLTVDKSRWQQGNVFSCSVMHEALHNHYTQKSLSLSPGITCPPPMSVEHADIWVKSYSLYSRERYICNSGFKRKAGTSSLTECVLNKATNVAHWTTPSLKCIRDPALVHQRPAPPSGGSGGGGSGGGSGGGGSGGNWVNVISDLKKIEDLIQSMHIDATLYTESDVHPSCKVTAMKCFLLELQVISLESGDASIHATVEALIILANNSLSSNAQVTESGCKECEELEEKNIKEFLQSFVHIVQMFINTS heavy 2: QVQLVQSGAEVKKPGASVKVSCKASGYTFTDYAMHWVRQAPGQRLEWMGWINTYTGKPTYAQKFQGRVTITRDTSASTAYMELSSLRSEDTAVYYCARAVFYGYTMDAWGQGTLVTVSSASTKGPSVFPLAPSSKSTSGGTAALGCLVKDYFPEPVTVSWNSGALTSGVHTFPAVLQSSGLYSLSSVVTVPSSSLGTQTYICNVNHKPSNTKVDKKVEPKSCDKTHTCPPCPAPELLGGPDVFLFPPKPKDTLMISRTPEVTCVVVDVSHEDPEVKFNWYVDGVEVHNAKTKPREEQYNSTYRVVSVLTVLHQDWLNGKEYKCKVSNKALPLPEEKTISKAKGQPREPQVYTLPPSRDELTKNQVSLSCAVKGFYPSDIAVEWESNGQPENNYKTTPPVLDSDGSFFLVSKLTVDKSRWQQGNVFSCSVMHEALHNHYTQKSLSLSPG light: DIQMTQSPSSLSASVGDRVTITCRASEDIYSNLAWYQQKPGKAPKLLIFSVKRLQDGVPSRFSGSGSGTDFTLTISSLQPEDFATYYCLQGSNFPLTFGQGTKVEIKRTVAAPSVFIFPPSDEQLKSGTASVVCLLNNFYPREAKVQWKVDNALQSGNSQESVTEQDSKDSTYSLSSTLTLSKADYEKHKVYACEVTHQGLSSPVTKSFNRGEC |

More lines, now with the values behind:

| Binder | A/I (F158) [1] | A/I (V158) [2] |
| --- | --- | --- |
| hCl1a (antibody) chain 1: not shown chain 2: DIQMTQSPSSLSASVGDRVTITCRASEDIYSNLAWYQQKPGKAPKLLIFSVKRLQDGVPSRFSGSGSGTDFTLTISSLQPEDFATYYCLQGSNFPLTFGQGTKVEIKRTVAAPSVFIFPPSDEQLKSGTASVVCLLNNFYPREAKVQWKVDNALQSGNSQESVTEQDSKDSTYSLSSTLTLSKADYEKHKVYACEVTHQGLSSPVTKSFNRGEC | 20.6 | 83.8 |
| hCl1a AAA-RLI DANA afuc (other, Afucosylated Fc N-glycan (N297, both heavy chains); the letters cannot carry it., Same chains as m6, afucosylated; copies: 1 + 1 + 2) heavy 1: QVQLVQSGAEVKKPGASVKVSCKASGYTFTDYAMHWVRQAPGQRLEWMGWINTYTGKPTYAQKFQGRVTITRDTSASTAYMELSSLRSEDTAVYYCARAVFYGYTMDAWGQGTLVTVSSASTKGPSVFPLAPSSKSTSGGTAALGCLVKDYFPEPVTVSWNSGALTSGVHTFPAVLQSSGLYSLSSVVTVPSSSLGTQTYICNVNHKPSNTKVDKKVEPKSCDKTHTCPPCPAPELLGGPSVFLFPPKPKDTLMISRTPEVTCVVVDVSHEDPEVKFNWYVDGVEVHNAKTKPREEQYNATYRVVSVLTVLHQDWLNGKEYKCKVSNKALPAPIAATISKAKGQPREPQVYTLPPSRDELTKNQVSLWCLVKGFYPSDIAVEWESNGQPENNYKTTPPVLDSDGSFFLYSKLTVDKSRWQQGNVFSCSVMHEALHNHYTQKSLSLSPGITCPPPMSVEHADIWVKSYSLYSRERYICNSGFKRKAGTSSLTECVLNKATNVAHWTTPSLKCIRDPALVHQRPAPPSGGSGGGGSGGGSGGGGSGGNWVNVISDLKKIEDLIQSMHIDATLYTESDVHPSCKVTAMKCFLLELQVISLESGDASIHATVEALIILANNSLSSNAQVTESGCKECEELEEKNIKEFLQSFVHIVQMFINTS heavy 2: QVQLVQSGAEVKKPGASVKVSCKASGYTFTDYAMHWVRQAPGQRLEWMGWINTYTGKPTYAQKFQGRVTITRDTSASTAYMELSSLRSEDTAVYYCARAVFYGYTMDAWGQGTLVTVSSASTKGPSVFPLAPSSKSTSGGTAALGCLVKDYFPEPVTVSWNSGALTSGVHTFPAVLQSSGLYSLSSVVTVPSSSLGTQTYICNVNHKPSNTKVDKKVEPKSCDKTHTCPPCPAPELLGGPSVFLFPPKPKDTLMISRTPEVTCVVVDVSHEDPEVKFNWYVDGVEVHNAKTKPREEQYNATYRVVSVLTVLHQDWLNGKEYKCKVSNKALPAPIAATISKAKGQPREPQVYTLPPSRDELTKNQVSLSCAVKGFYPSDIAVEWESNGQPENNYKTTPPVLDSDGSFFLVSKLTVDKSRWQQGNVFSCSVMHEALHNHYTQKSLSLSPG light: DIQMTQSPSSLSASVGDRVTITCRASEDIYSNLAWYQQKPGKAPKLLIFSVKRLQDGVPSRFSGSGSGTDFTLTISSLQPEDFATYYCLQGSNFPLTFGQGTKVEIKRTVAAPSVFIFPPSDEQLKSGTASVVCLLNNFYPREAKVQWKVDNALQSGNSQESVTEQDSKDSTYSLSSTLTLSKADYEKHKVYACEVTHQGLSSPVTKSFNRGEC | 380 | 1010 |
| hCl1a AAA-RLI DANA (other, See note of m4; also called SOT202-AAA-DANA; copies: 1 + 1 + 2) heavy 1: QVQLVQSGAEVKKPGASVKVSCKASGYTFTDYAMHWVRQAPGQRLEWMGWINTYTGKPTYAQKFQGRVTITRDTSASTAYMELSSLRSEDTAVYYCARAVFYGYTMDAWGQGTLVTVSSASTKGPSVFPLAPSSKSTSGGTAALGCLVKDYFPEPVTVSWNSGALTSGVHTFPAVLQSSGLYSLSSVVTVPSSSLGTQTYICNVNHKPSNTKVDKKVEPKSCDKTHTCPPCPAPELLGGPSVFLFPPKPKDTLMISRTPEVTCVVVDVSHEDPEVKFNWYVDGVEVHNAKTKPREEQYNATYRVVSVLTVLHQDWLNGKEYKCKVSNKALPAPIAATISKAKGQPREPQVYTLPPSRDELTKNQVSLWCLVKGFYPSDIAVEWESNGQPENNYKTTPPVLDSDGSFFLYSKLTVDKSRWQQGNVFSCSVMHEALHNHYTQKSLSLSPGITCPPPMSVEHADIWVKSYSLYSRERYICNSGFKRKAGTSSLTECVLNKATNVAHWTTPSLKCIRDPALVHQRPAPPSGGSGGGGSGGGSGGGGSGGNWVNVISDLKKIEDLIQSMHIDATLYTESDVHPSCKVTAMKCFLLELQVISLESGDASIHATVEALIILANNSLSSNAQVTESGCKECEELEEKNIKEFLQSFVHIVQMFINTS heavy 2: QVQLVQSGAEVKKPGASVKVSCKASGYTFTDYAMHWVRQAPGQRLEWMGWINTYTGKPTYAQKFQGRVTITRDTSASTAYMELSSLRSEDTAVYYCARAVFYGYTMDAWGQGTLVTVSSASTKGPSVFPLAPSSKSTSGGTAALGCLVKDYFPEPVTVSWNSGALTSGVHTFPAVLQSSGLYSLSSVVTVPSSSLGTQTYICNVNHKPSNTKVDKKVEPKSCDKTHTCPPCPAPELLGGPSVFLFPPKPKDTLMISRTPEVTCVVVDVSHEDPEVKFNWYVDGVEVHNAKTKPREEQYNATYRVVSVLTVLHQDWLNGKEYKCKVSNKALPAPIAATISKAKGQPREPQVYTLPPSRDELTKNQVSLSCAVKGFYPSDIAVEWESNGQPENNYKTTPPVLDSDGSFFLVSKLTVDKSRWQQGNVFSCSVMHEALHNHYTQKSLSLSPG light: DIQMTQSPSSLSASVGDRVTITCRASEDIYSNLAWYQQKPGKAPKLLIFSVKRLQDGVPSRFSGSGSGTDFTLTISSLQPEDFATYYCLQGSNFPLTFGQGTKVEIKRTVAAPSVFIFPPSDEQLKSGTASVVCLLNNFYPREAKVQWKVDNALQSGNSQESVTEQDSKDSTYSLSSTLTLSKADYEKHKVYACEVTHQGLSSPVTKSFNRGEC | 244 | 691 |
